{
  "source": "paper PMC8816864",
  "about": "(Proteins, 2021)",
  "binders": {"B1": {"name": "HSC82 (GFP fusion) (natural protein)", "chain": "not shown"}, "B2": {"name": "SSA2-GFP (natural protein)", "chain": "not shown"}, "B3": {"name": "HSP60 (GFP fusion) (natural protein, S. cerevisiae, UniProt P19882 26-572, looked up)", "chain": "ELKFGVEGRASLLKGVETLAEAVAATLGPKGRNVLIEQPFGPPKITKDGVTVAKSIVLKDKFENMGAKLLQEVASKTNEAAGDGTTSATVLGRAIFTESVKNVAAGCNPMDLRRGSQVAVEKVIEFLSANKKEITTSEEIAQVATISANGDSHVGKLLASAMEKVGKEGVITIREGRTLEDELEVTEGMRFDRGFISPYFITDPKSSKVEFEKPLLLLSEKKISSIQDILPALEISNQSRRPLLIIAEDVDGEALAACILNKLRGQVKVCAVKAPGFGDNRKNTIGDIAVLTGGTVFTEELDLKPEQCTIENLGSCDSITVTKEDTVILNGSGPKEAIQERIEQIKGSIDITTTNSYEKEKLQERLAKLSGGVAVIRVGGASEVEVGEKKDRYDDALNATRAAVEEGILPGGGTALVKASRVLDEVVVDNFDQKLGVDIIRKAITRPAKQIIENAGEEGSVIIGKLIDEYGDDFAKGYDASKSEYTDMLATGIIDPFKVVRSGLVDASGVASLLATTEVAIVDAPEPPAAAGAGGMPGGMPGMPGMM"}, "B4": {"name": "HSP82 (GFP fusion) (natural protein)", "chain": "not shown"}, "B5": {"name": "eRF1-GFP (natural protein, S. cerevisiae, UniProt P12385 1-437, looked up)", "chain": "MDNEVEKNIEIWKVKKLVQSLEKARGNGTSMISLVIPPKGQIPLYQKMLTDEYGTASNIKSRVNRLSVLSAITSTQQKLKLYNTLPKNGLVLYCGDIITEDGKEKKVTFDIEPYKPINTSLYLCDNKFHTEVLSELLQADDKFGFIVMDGQGTLFGSVSGNTRTVLHKFTVDLPKKHGRGGQSALRFARLREEKRHNYVRKVAEVAVQNFITNDKVNVKGLILAGSADFKTDLAKSELFDPRLACKVISIVDVSYGGENGFNQAIELSAEALANVKYVQEKKLLEAYFDEISQDTGKFCYGIDDTLKALDLGAVEKLIVFENLETIRYTFKDAEDNEVIKFAEPEAKDKSFAIDKATGQEMDVVSEEPLIEWLAANYKNFGATLEFITDKSSEGAQFVTGFGGIGAMLRYKVNFEQLVDESEDEYYDEDEGSDYDFI"}, "B6": {"name": "HSP26 (GFP fusion) (natural protein, S. cerevisiae, UniProt P15992 1-214, looked up)", "chain": "MSFNSPFFDFFDNINNEVDAFNRLLGEGGLRGYAPRRQLANTPAKDSTGKEVARPNNYAGALYDPRDETLDDWFDNDLSLFPSGFGFPRSVAVPVDILDHDNNYELKVVVPGVKSKKDIDIEYHQNKNQILVSGEIPSTLNEESKDKVKVKESSSGKFKRVITLPDYPGVDADNIKADYANGVLTLTVPKLKPQKDGKNHVKKIEVSSQESWGN"}, "B7": {"name": "SSA1-GFP (natural protein)", "chain": "not shown"}},
  "key": {"Flag-eRF1 [1]": {"target": "T1, Flag-eRF1 (S. cerevisiae, UniProt P12385 1-437)", "test": "co-IP + AUC"}, "Flag-eRF1 [2]": {"target": "T1, Flag-eRF1", "test": "co-IP + AUC", "remark": "listed apart in the source"}},
  "data": [
    {"binder": "B1", "values": [
      {"measurement": "% abundance in the Flag-eRF1 pull-down normalized to SUP35 (19S-200S)", "setting": "Flag-eRF1 [1]", "result": "9.5 ± 3.5", "unit": "%"},
      {"measurement": "normalized AU-FDS intensity relative to SUP35-GFP (19S peak)", "setting": "Flag-eRF1 [2]", "result": 0.08},
      {"measurement": "normalized AU-FDS intensity relative to SUP35-GFP (28S peak)", "setting": "Flag-eRF1 [2]", "result": 0.088},
      {"measurement": "normalized AU-FDS intensity relative to SUP35-GFP (39S peak)", "setting": "Flag-eRF1 [2]", "result": 0.11},
      {"measurement": "normalized AU-FDS intensity relative to SUP35-GFP (57S peak)", "setting": "Flag-eRF1 [2]", "result": 0.11},
      {"measurement": "normalized AU-FDS intensity relative to SUP35-GFP (77S-200S)", "setting": "Flag-eRF1 [2]", "result": 0.083}
    ]},
    {"binder": "B2", "values": [
      {"measurement": "% abundance in the Flag-eRF1 pull-down normalized to SUP35 (19S-200S)", "setting": "Flag-eRF1 [1]", "result": "33 ± 3.45", "unit": "%"},
      {"measurement": "normalized AU-FDS intensity relative to SUP35-GFP (19S peak)", "setting": "Flag-eRF1 [2]", "result": 0.28},
      {"measurement": "normalized AU-FDS intensity relative to SUP35-GFP (28S peak)", "setting": "Flag-eRF1 [2]", "result": 0.35},
      {"measurement": "normalized AU-FDS intensity relative to SUP35-GFP (39S peak)", "setting": "Flag-eRF1 [2]", "result": 0.36},
      {"measurement": "normalized AU-FDS intensity relative to SUP35-GFP (57S peak)", "setting": "Flag-eRF1 [2]", "result": 0.27},
      {"measurement": "normalized AU-FDS intensity relative to SUP35-GFP (77S-200S)", "setting": "Flag-eRF1 [2]", "result": 0.38}
    ]},
    {"binder": "B3", "values": [
      {"measurement": "% abundance in the Flag-eRF1 pull-down normalized to SUP35 (19S-200S)", "setting": "Flag-eRF1 [1]", "result": "11 ± 0.75", "unit": "%"},
      {"measurement": "normalized AU-FDS intensity relative to SUP35-GFP (19S peak)", "setting": "Flag-eRF1 [2]", "result": 0.069},
      {"measurement": "normalized AU-FDS intensity relative to SUP35-GFP (28S peak)", "setting": "Flag-eRF1 [2]", "result": 0.11},
      {"measurement": "normalized AU-FDS intensity relative to SUP35-GFP (39S peak)", "setting": "Flag-eRF1 [2]", "result": 0.1},
      {"measurement": "normalized AU-FDS intensity relative to SUP35-GFP (57S peak)", "setting": "Flag-eRF1 [2]", "result": 0.11},
      {"measurement": "normalized AU-FDS intensity relative to SUP35-GFP (77S-200S)", "setting": "Flag-eRF1 [2]", "result": 0.13}
    ]},
    {"binder": "B4", "values": [
      {"measurement": "% abundance in the Flag-eRF1 pull-down normalized to SUP35 (19S-200S)", "setting": "Flag-eRF1 [1]", "result": "8.6 ± 2.9", "unit": "%"},
      {"measurement": "normalized AU-FDS intensity relative to SUP35-GFP (19S peak)", "setting": "Flag-eRF1 [2]", "result": 0.066},
      {"measurement": "normalized AU-FDS intensity relative to SUP35-GFP (28S peak)", "setting": "Flag-eRF1 [2]", "result": 0.13},
      {"measurement": "normalized AU-FDS intensity relative to SUP35-GFP (39S peak)", "setting": "Flag-eRF1 [2]", "result": 0.075},
      {"measurement": "normalized AU-FDS intensity relative to SUP35-GFP (57S peak)", "setting": "Flag-eRF1 [2]", "result": 0.058},
      {"measurement": "normalized AU-FDS intensity relative to SUP35-GFP (77S-200S)", "setting": "Flag-eRF1 [2]", "result": 0.027}
    ]},
    {"binder": "B5", "values": [
      {"measurement": "% abundance in the Flag-eRF1 pull-down normalized to SUP35 (19S-200S)", "setting": "Flag-eRF1 [1]", "result": "13 ± 4.5", "unit": "%"}
    ]},
    {"binder": "B6", "values": [
      {"measurement": "% abundance in the Flag-eRF1 pull-down normalized to SUP35 (19S-200S)", "setting": "Flag-eRF1 [1]", "result": "7.6 ± 2.9", "unit": "%"},
      {"measurement": "normalized AU-FDS intensity relative to SUP35-GFP (19S peak)", "setting": "Flag-eRF1 [2]", "result": 0.087},
      {"measurement": "normalized AU-FDS intensity relative to SUP35-GFP (28S peak)", "setting": "Flag-eRF1 [2]", "result": 0.12},
      {"measurement": "normalized AU-FDS intensity relative to SUP35-GFP (39S peak)", "setting": "Flag-eRF1 [2]", "result": 0.056},
      {"measurement": "normalized AU-FDS intensity relative to SUP35-GFP (57S peak)", "setting": "Flag-eRF1 [2]", "result": 0.052},
      {"measurement": "normalized AU-FDS intensity relative to SUP35-GFP (77S-200S)", "setting": "Flag-eRF1 [2]", "result": 0.065}
    ]},
    {"binder": "B7", "values": [
      {"measurement": "% abundance in the Flag-eRF1 pull-down normalized to SUP35 (19S-200S)", "setting": "Flag-eRF1 [1]", "result": "30 ± 0.63", "unit": "%"},
      {"measurement": "normalized AU-FDS intensity relative to SUP35-GFP (19S peak)", "setting": "Flag-eRF1 [2]", "result": 0.29},
      {"measurement": "normalized AU-FDS intensity relative to SUP35-GFP (28S peak)", "setting": "Flag-eRF1 [2]", "result": 0.37},
      {"measurement": "normalized AU-FDS intensity relative to SUP35-GFP (39S peak)", "setting": "Flag-eRF1 [2]", "result": 0.28},
      {"measurement": "normalized AU-FDS intensity relative to SUP35-GFP (57S peak)", "setting": "Flag-eRF1 [2]", "result": 0.28},
      {"measurement": "normalized AU-FDS intensity relative to SUP35-GFP (77S-200S)", "setting": "Flag-eRF1 [2]", "result": 0.31}
    ]}
  ]
}
